Values of other authors as cited in article PMC8069034.

Target: IL13 (Homo sapiens) (UniProt P35225)
Assay: SPR

Sequence of IL13 (Homo sapiens) (P35225 25-146): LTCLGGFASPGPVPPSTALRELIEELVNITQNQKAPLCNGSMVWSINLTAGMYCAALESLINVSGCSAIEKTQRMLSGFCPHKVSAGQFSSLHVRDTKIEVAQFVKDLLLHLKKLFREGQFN

Kd: 0.058 nM
Substance: tralokinumab
